Data published in the RNAGym collection of RNA variant scans (doi:10.1073/pnas.2313332121).

B1: TPR t1 (parent)
chain: GACCAAUCUGCCCUCAGAGCUCGAGAACAUCUUCGGAUGCAGAGGAGGCAGGCUUCGGUGGCGCGAUAGCGCCAACGUCCUCAACCUCCAAUGCAUCCCACCACAUGAUGAUGCCUGAAGAGCCUUGGUUUUUUG

Variants of: B1
Experiment: polymerase ribozyme fitness, log enrichment relative to wild type (log ratio); higher = more active; in vitro selection for triplet polymerase activity
Procedure, shortened: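 PCR was used to build mutant libraries for each subunit of a heterodimeric triplet polymerase ribozyme, which were then transcribed. A single in vitro selection round, in triplicate, used a frozen incubation at −7 °C and recovered extended constructs by gel excision, streptavidin beads and RT-PCR. Fitness is the logarithm of genotype enrichment relative to wild-type enrichment, averaged over replicates with inverse-variance weights. The logarithm is base 2, and after Illumina sequencing only genotypes with ≥10 input reads and ≥1 read per output were kept.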

Variant | polymerase ribozyme fitness (log ratio)
G47C C62G A118G | -3.74
C12U C22U U59C C89G U109A U116A C123G | -7.4
C3U C72A | -0.325
C13A G47U G63U | -4.2
G71U U125A | -1.21
U32G C56U U109A C124U | -6.14
C11G G63A A111G | -0.361
A27U G39C | -3.26
C12A G63C C102G C104U G113A | -7.42
C3U G45A G48U G60A | -1.92
C13U C73U C124U G127A | 0.275
C13G C72A U78G | -2.9
C11G C34U A84C | -3.61
C8G G61C C72A C97U U130A | 0.551
G23C G69A G120A A121U C123U U129C | -6.52
U14A G45A G47U G52A C86A | -3.59
G60C G110U U125G | -2.79
C62U C98U A111U G120C | -4.23
G10A G63C | -0.414
A29U U54G | -2.02
C40U C114U | -2.55
U9A A50C A91G U106C | -1.11
U38A G120A | -0.255
U7A C12A A90G | -0.303

Variant | polymerase ribozyme fitness (log ratio)
C20U C72G | -1.56
C70U G113U | -2.81
A27C A95U C114U | -4.15
C31U C88G | -6.51
G93U G110C | -4.54
G52A U55A G61A C97U C101G U125G | -2.53
U9C G71U U78G U132A | -0.414
A2G A18U A29G C104G C124U U130G | -4.82
C72U A121C U134G | 1.71
G77U U78C U87G A121U U130G | 2.02
C15A G48C C70U | -3
C11U G120U | -0.185
U21A U130G | 0.0378
A18C G63U | -4.53
A2G A29G G71A A90C | -3.65
G44A G51A C104U C115G A121C C124A | -5.73
A5G C8G G47A G69U C80G | -3.96
C11G G17U A50U G71U C85A U87C | -5.37
A41G G45A A50C C123U | -0.694
U112C U116A | -1.02
C72G C94G G113A G122U | -3.41
A83U C89A U96A | -2.34
C86U G110U | -1.02
C89U A108G C114U | -4.44

Variant | polymerase ribozyme fitness (log ratio)
C31G G36U G44A A74U A108U U112G | -7.74
A41C U55A C102U | -3.43
A46C G57U | -0.681
C40G G63U G120A | -0.497
C53G C64A U112G C124A | -6.11
C12U A119C A121C | -2.21
U38C U54A G77A U96A G120A | -4.19
C20U G48U | -2.05
U14A U21A U30G G58C U112C A118C | -4.31
C56A C89U | -1
G19A U32A A84U | -6.42
C4A C70G | -3.6
C13U G39U U59A G128U | -1.64
A90C C97A C99G G113A G122U | -7.3
U9A A27U G42U | -4.71
A18C C62U | -2.83
C3A G44U G63C | -3.25
U14C U54G C62U | -1.69
A16U G17A G93A | -4.25
C12G G61C | -0.968
G63U A84U C86A G128U U130C | -3.81
C40G G48U C82A | -2.43
U9A C20G | -2.47
A37U G39A | -1.34

Variant | polymerase ribozyme fitness (log ratio)
G48A G61A U130A | -0.668
G44C C49A C101G U112G U131G | -4.71
C22A A26U A27U C76U A95G G110A | -6.96
U55G G93A G117U | -3.04
A43C U55C U130G | -2.82
C11G G42C A68U C72A A91U G113C | -8.47
C8A A100U U116G U133A G135U | -0.711
A18U G69U | -0.112
G61C U81A C124G U132C | -2.36
U33A C56A | -4.57
U14G U130A | -3.36
A16G G69U C73A C115U | -1.93
G35A A74C C101U | -4.16
G48C G60A G93A | -0.836
A37C U67C U81C C123A | -5.95
G36C C76A U106A G110A | -4.36
U87G C94A G120U | -0.366
G10U A46C A74U G127C | -2.03
C31A G44U G69A A100C U109G G135U | -6.04
C12U U54A | 0.369
G71U A121G U125A | 1.48
G61U A90U | -2.11
C12U G17C A29G C82A A90U A95C U106C G120A A121U | -6.75
U9G G52U C70U C88G C123A | -0.768

Variant | polymerase ribozyme fitness (log ratio)
C15A C70U G93C C124G G128C | -4.17
G42A G110A | -2.55
C89A C94A C104U G110A | -4.47
G113A G122A | -2.77
A66U C114A | -3.05
A2G C123G | 1.69
A18U G45C G57C G69U | -1.15
A2G C70U U96A | -1.87
A2G C20A C88U | -4.8
C11U C62G U112A C123A G127U | -0.368
C12U A27G G47A G51A G58A G61C A103G A121G | -7.4
C13A G60A | -1.95
A6U G44A C73U C86G | -3.18
A2U G61A G127C | -1.88
G10C A26C A37U U78C A83U U87A C115G G127A | -6.88
G10U G113U | -2.76
G19U U54G C56U C123G | -6.86
U14C G44A A46U A75G A95U | -3.28
C12A A37U C114G | -3.99
C8G C12G U30C C53G C114U | -4.29
G42U G71A | -2.43
A27G A41U | -2.67
A29U G48C | -2.86
C8U G19C G42U C62G A91G C123U | -2.98

Variant | polymerase ribozyme fitness (log ratio)
A2G C13U C53U | -0.428
G60C G110U | -1.71
C11A G77A C82G | -1.88
C11G A74U C76A U78A C80U G93U G135C | -3.08
C53U G61U U78C | 0.151
G17U C70G | -4.78
C11U C15A C101G | -3.87
C40A C82A U92A C102A C124U | -4.16
U7A A16C C115A | -2.49
C12U C13U G42U G51C U116G | -7.04
C104U G113C C123A | -3.61
C20G A26G C64A C70U U78C U112A | -5.93
U30C G61C C72U A95U | -4
U92A C104U | -3.56
C8U C15A A119G | 0.435
C12A U55G C72U U92G | -2.88
G44C C64U A111G U133A | -0.585
C13A C115U | -3.06
A41G C73U U125C | -2.74
U9C C15A G45C G57C U59A G120A | 0.743
U21A C62U U92C U116C A119G | 0.3
U7A A43U | -1.13
C73A G128U | -2.16
C56G G69C A83C C104U | -5.43

Variant | polymerase ribozyme fitness (log ratio)
G39U C62U C99U | -5.08
G58A G61A G120A | 0.579
C82G A90G A91G C101G | -2.95
C4U A18G | -3.62
A2U A121U | -0.628
G48U A50G G61A C89U | -1.81
C20G G60A | -3.55
C3G A43U | -3.88
C12U A43U C56G | -1.63
C34A A74C C89G G113C A118C U131A | -5.57
G39C G110A | -1.82
G19C A41C C70G G120U | -6.52
G61A | 0.0725
A50C C70G | -3.56
A24U A119G | -6.17
C22U A50C C124A | -3.54
U55C C72A U78C C79U A121G | 2.46
U9A G19A G52U A105C A111G G120A | -5.2
C13U G45U A84G A121U | 0.667
G10U C11G A29C C53A A74U | -3.94
G69A C86A C99U G110C | -6.84
C49G U59G C62G C72U | -4.88
G42C G57C A66C | -4.36
